{"source": "patent US11098081B2", "about": "“Epitope tag and method for detection and/or purification of tagged polypeptides” (ChromoTek GmbH, priority 2015, dated 2021)", "molecules": {"B1": {"name": "BC2-Nb: nanobody; variable region of a heavy chain antibody of Camelidae, 122 aa, SEQ ID NO: 6, binds the BC2 epitope tag (protein)", "VHH": "QVQLVESGGGLVQPGGSLTLSCTASGFTLDHYDIGWFRQAPGKEREGVSCINNSDDDTYYADSVKGRFTIFMDNAKDTVYLQMNSLKPEDTAIYYCAEARGCKRGRYEYDFWGQGTQVTVSS", "modifications": "BC2-Nb"}, "B2": {"name": "BC2-NbAF488: BC2-Nb chemically coupled to the organic dye AlexaFluor488 (conjugate)", "VHH": "B1 VHH", "modifications": "left off: small tags and cut ends", "notes": "BC2-Nb chemically coupled to the organic dye AlexaFluor488"}, "B3": {"name": "BC2-NbATTO647: BC2-Nb coupled to the organic dye ATTO647 (conjugate)", "VHH": "B1 VHH", "modifications": "left off: small tags and cut ends", "notes": "BC2-Nb coupled to the organic dye ATTO647"}}, "key": {"[1]": {"biological_target": "T1, full-length β-catenin or domains (N-terminus aa 1-119, armadillo domain, C-terminus) (Homo sapiens, UniProt P35222)", "T1 construct": "full-length β-catenin or the following domains of β-catenin: N-terminus aa 1-119; made in house; host or cells: E. coli BL21(DE3) CodonPlus-RIL", "T1 sequence (P35222 1-119)": "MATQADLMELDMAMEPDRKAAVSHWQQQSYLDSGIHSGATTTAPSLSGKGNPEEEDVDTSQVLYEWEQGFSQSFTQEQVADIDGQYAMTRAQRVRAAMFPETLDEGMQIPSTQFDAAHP", "experiment": "Domain mapping of β-catenin binders (microsphere-based sandwich immunoassay)", "assay_type": "binding", "protocol": "Microsphere-immobilized Nbs were incubated with GST-fusion constructs comprising full-length β-catenin or indicated domains. Captured β-catenin constructs were detected with domain-specific antibodies. For direct comparison, fluorescence intensities obtained with domain-specific antibodies were normalized to signals obtained with an anti-GST-antibody.\nBC2-Nb was covalently immobilized on microspheres using a modified manufacturer's protocol described in Poetz et al. ((2009) Microsphere-based co-immunoprecipitation in multiplex. Analytical biochemistry 395, 244-248). Immobilized BC2-Nb was incubated with purified proteins representing full-length β-catenin or the following domains of β-catenin: N-terminus aa 1-119, armadillo domain aa 120-683 and C-terminus aa 683-781. Purified Glutathion-S-transferase (GST) was used as a negative control. Concentrations range from 0.25 μg/ml to 2 μg/ml. Bound proteins were detected with domain-specific antibodies including ABC antibody clone 8E7 (Merck Millipore) specific for the N-terminus, anti-β-catenin 9G10 (Merck Millipore) targeting the armadillo domain and anti-β-catenin clone 14 (Becton Dickinson) specifically recognizing the C-terminus. To detect unspecific binding of the BC2-Nb to GST an antibody against GST (6G9, ChromoTek) was used. […] The microspheres were measured in a FlexMap 3D instrument (Luminex). […]"}, "[2]": {"biological_target": "GFP with a C-terminal BC2-tag (GFPBC2T) (Aequorea victoria, UniProt P42212, F64L/H231L/S65T)", "protocol": "For surface plasmon resonance spectroscopy (SPR)-based affinity measurements. […] The obtained data sets were evaluated using the 1:1 Langmuir binding model with mass transfer. As a control.\nThe affinity measurements of the BC2 nanobody and the indicated mutants thereof to GFPBC2T were performed using surface plasmon resonance spectroscopy with a Biacore 3000 instrument (GE-Healthcare). GFPBC2T was covalently coupled on dextran fibers of a CM5 sensorchip (GE Healthcare) to a response level of 500 RU. One flow cells was activated and blocked in the absence of protein to determine background, another was loaded with untagged GFP as a control against unspecific binding. […] Each measurement was done in duplicates. As running dilution buffer 10 mM HEPES pH 7.4, 150 mM NaCl, 0.5% surfactant Tween was used. Measurements were performed at 25° C. For the association of BC2-Nb a How rate of 50 μl/min for 15 s and for the dissociation a flow rate of 50 μl/min for 600 s was applied. The regeneration was induced by injection of 23 μl regeneration solution at a flow rate of 30 μl/min. As regeneration solution 10 mM glycine-HCl pH 2.0 was used. The data was evaluated using the software Bia evaluation 4.1 and the 1:1 Langmuir binding model with mass transfer."}, "[3]": {"system": "peptides of the β-catenin N-terminus (aa 1-127)", "experiment": "Epitope mapping (pepscan) with biotinylated BC2-Nb on peptide-coated microspheres", "assay_type": "binding, human", "source_text": "(SEQ ID NO: 4), […] […] (SEQ ID NO: 65).\nAs negative controls, microspheres comprising Ovalbumin and the Myc-peptide ([…]) covalently coupled to OVA-microspheres were used."}, "[4]": {"system": "HeLa cells expressing mCherry-VIMBC2T or GFP-PCNABC2T", "experiment": "Immunocytochemistry with fluorescently labeled BC2-Nb", "assay_type": "cell-based, human", "conditions": "mCherry-VIMBC2T (AF488) or GFP-PCNABC2T (ATTO647)", "source_text": "(b) HeLa cells ectopically expressing mCherry-VIMBC2T or eGFP-PCNABC2T were fixed either with methanol or PFA, respectively, followed by staining with the indicated fluorescently labeled BC2-Nbs and DAPI. Scale bar 25 μm.\nHeLa cells ectopically expressing untagged mCherry-VIM or eGFP-PCNA were fixed with methanol or PFA, respectively, and stained with the indicated fluorescently labeled BC2-Nbs and DAPI. Scale bar 25 μm.\nFor immunocytochemistry 5-10×10^3 adherent HeLa cells per well of a μClear 96 well plate (Greiner) were transfected with plasmids coding for C-terminally BC2-tagged vimentin or PCNA After 24 h, cells were washed once with PBS and fixed with 4% w/v paraformaldehyde (PFA) in PBS for 15 mm at RT or with methanol for 15 mm at −20° C. After removal of the fixative and washing twice with PBS, cells were blocked and permeabilized with 3% w/v BSA and 0.1% v/v Triton X-100 in PBS for 1 h at RT Subsequently, labeled BC2 nanobody was added with a final concentration of 10-15 μg/ml and 4′,6-diamidino-2-phenyl indole (DAPI, Sigma Aldrich) with a final concentration of 1 μg/ml for overnight incubation at 4° C. Unbound nanobody and DAPI were removed by washing 3 limes with a mixture of PBS and 6% v/v 5 M NaCl in H2O. Images of FIG. 4 b and FIG. 10 b were acquired with an Image Xpress micro XL system. Confocal images of FIG. 10 a were acquired with an ImageXpress Micro Confocal."}, "[5]": {"system": "BC2-tagged proteins (eGFP-PCNABC2T, mCherry-VIMBC2T)", "experiment": "Western blot detection with fluorescently labeled BC2-Nb", "assay_type": "binding", "protocol": "(b) For Western blot detection using fluorescently labeled B2-Nb (BC2-NbAF488) indicated amounts of the input fractions (as shown in (a)) were subjected to SDS-PAGE and immunoblotting. The Western blots were probed with BC2-N488 followed by detection with anti-PCNA (left panel) or anti-Vimentin (right panel) antibodies. As loading control blots were probed with an anti-GAPDH antibody (lower panel).\nDenaturing polyacrylamide gel electrophoresis (SDS-PAGE) was performed according to standard procedures Protein samples were boiled in 2× SDS-sample buffer (60 mM Tris/HCl, pH 6.8; 2% (w/v) SDS; 5% (v/v) 2-mercaploethanol, 10% (v/v) glycerol, 0.02% bromophenole blue). For immunoblotting proteins were transferred on nitrocellulose membranes (Bio-Rad Laboratories).\nPurified BC2 nanobody (1 mg) was labeled with the NHS-activated fluorescent dyes Alexa488 (Life technologies) or Atto647 (Atto-Tec) according to manufacturer's guidelines. After coupling, unbound dye was removed by separation on PD-10 Desalting Columns (GE Healthcare). For immunoblot analysis. 5 μg of BC2-NbAF488 was diluted in 4 ml 3% BSA diluted in TBS, 0.05% Tween20 and Western blots were incubated for 1 h at RT."}}, "note": "“And” between values parts separate entries of the source, which are not always exact repeats. Identical values can stand only once.", "data": [{"molecule": "B1", "values": [{"measurement": "β-catenin domain recognized", "setting": "[1]", "result": "exclusively recognizes the N-terminal domain (aa 1-119)"}, {"measurement": "Rmax [RU]", "setting": "[2]; SPR, GFPBC2T on CM5 chip, 1:1 Langmuir binding model with mass transfer", "result": "170 ± 0.34", "unit": "RU"}, {"measurement": "Kd", "setting": "[2]; SPR, GFPBC2T on CM5 chip, 25° C., 1:1 Langmuir binding model with mass transfer", "result": "1.4 nM and ~1.4 nM"}, {"measurement": "kon (M^−1s^−1)", "setting": "[2]; SPR, association rate constant", "result": "4.6 ± 0.04 × 10^5 M^−1s^−1"}, {"measurement": "koff (s^−1)", "setting": "[2]; SPR, dissociation rate constant", "result": "6.4 ± 0.27 × 10^−4 s^−1"}, {"measurement": "fold higher affinity compared to FLAG, HA, c-myc or EPEA systems", "setting": "[2]; comparison with literature values of prior-art tag systems", "result": "10-100 fold"}, {"measurement": "binding to epitope peptide with phosphorylated Ser23", "setting": "[3]", "result": "completely abolishes binding"}, {"measurement": "binding to overlapping 15-mer peptides", "setting": "[3]; 29 peptides covering aa 1-127", "result": "strong binding to two consecutive peptides comprising the residues 13-31"}, {"measurement": "amino acid sequence recognized (minimal epitope)", "setting": "[3]; N- and C-terminally truncated peptides", "result": "PDRKAAVSHWQQ"}]}, {"molecule": "B2", "values": [{"measurement": "co-localization with BC2-tagged protein in fixed HeLa cells", "setting": "[4]", "result": "strong co-localization"}, {"measurement": "signal for endogenous β-catenin in Western blot", "setting": "[5]; in the presence of BC2-tagged proteins", "result": "no signal for β-catenin was detected"}, {"measurement": "specificity in Western blot detection", "setting": "[5]; untagged proteins not detected", "result": "highly specific for BC2-tagged proteins"}]}, {"molecule": "B3", "values": [{"measurement": "co-localization with BC2-tagged protein in fixed HeLa cells", "setting": "[4]", "result": "clear co-localization"}]}]}
